Assay results taken from patent publication US20060105444.

Assays:
[1] = molecular target: human Factor IX EGF domain (wild type) (UniProt P00740)
[2] = molecular target: human Factor IX EGF domain mutant EGF.AG (UniProt P00740)
[3] = molecular target: human Factor IX EGF domain mutant EGF.AA (UniProt P00740)
[4] = molecular target: human Factor IX EGF domain mutant EGF.GA (UniProt P00740)
Sequence of human Factor IX EGF domain mutant EGF.GA (P00740 other isoform, or with tags, fused parts or gaps mutant): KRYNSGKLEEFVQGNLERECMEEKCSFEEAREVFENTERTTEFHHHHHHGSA

Sequence of human Factor IX EGF domain mutant EGF.AA (P00740 other isoform, or with tags, fused parts or gaps mutant): as above
Sequence of human Factor IX EGF domain (wild type) (P00740 other isoform, or with tags, fused parts or gaps): as the sequence (P00740 other isoform, or with tags, fused parts or gaps mutant) above
Sequence of human Factor IX EGF domain mutant EGF.AG (P00740 other isoform, or with tags, fused parts or gaps mutant): as above

“O-fucosyltransferase purified from CHO cells” was tested, and the Fucose (cpm) [1] was 12100 cpm, the Fucose (cpm) [2] was 4580 cpm and the Fucose (cpm) [3] was 1820 cpm. The “RP-HPLC with electrospray mass spectrometry of the fucosylation product” value [3] was “only one of the four differently folded species served as an acceptor substrate for the O-fucosyltransferase” and the Fucose (cpm) [4] was 6480 cpm.
